According to patent US20240350835A1 (AMBRX, published 2024):

B1: Humanized Anti-PSMA (full length) Variant 2 (antibody, human IgG1, kappa, V domains shown)
VH: QVQLVQSGAEVKKPGASVKVSCKASGYTFTEYTIHWVRQAPGQRLEWMGNINPNNGGTTYNQKFEDRVTITRDTSASTAYMELSSLRSEDTAVYYCAAGWNFDYWGQGTTLTVSS
VL: DIQLTQSPSFLSASVGDRVTITCKASQDVGTAVDWYQQKPGKAPKLLIYWASTRHTGVPSRFSGSGSGTEFTLTISSLQSEDFATYYCQQYNSYPLTFGGGTKVEIKR
notes: Humanized J591 (CDR graft), full length; expressed transiently in HEK293 cells, supernatant tested by FACS on LnCap cells; also called humanized anti-PSMA variant 2; Humanized Anti-PSMA Antibody Variant 2
B2: Humanized Anti-PSMA (full length) Variant 4 (antibody, human IgG1, kappa, V domains shown)
VH: QVQLVQSGAEVKKPGASVKVSCKASGYTFTEYTIHWVRQAPGQRLEWMGNINPNNGGTTYNQKFEDRVTITRDTSASTAYMELSSLRSEDTAVYYCAAGWNFDYWGQGTTLTVSS
VL: DIQLTQSPSFLSASVGDRVTITCKASQDVGTAVDWYQQKPGKAPKLLIYWASTRHTGVPSRFSGSGSGTEFTLTISNLQPEDFATYYCQQYNSYPLTFGGGTKVEIKR
notes: Humanized J591 (CDR graft), full length; expressed transiently in HEK293 cells, supernatant tested by FACS on LnCap cells; also called humanized anti-PSMA variant 4
B3: Humanized Anti-PSMA (full length) Variant 3 (antibody, human IgG1, kappa, V domains shown)
VH: QVQLVQSGAEVKKPGASVKVSCKASGYTFTEYTIHWVRQAPGQRLEWMGNINPNNGGTTYNQKFEDRVTITRDTSASTAYMELSSLRSEDTAVYYCAAGWNFDYWGQGTTLTVSS
VL: DIQLTQSPSFLSASVGDRVTITCKASQDVGTAVDWYQQKPGKAPKLLIYWASTRHTGVPDRFSGSGSGTEFTLTISSLQPEDFATYYCQQYNSYPLTFGGGTKVEIKR
notes: Humanized J591 (CDR graft), full length; expressed transiently in HEK293 cells, supernatant tested by FACS on LnCap cells; also called humanized anti-PSMA variant 3
B4: Chimeric Anti-PSMA Antibody ADC, MMAF payload, Non-Cleavable (PEG3) linker (antibody, human IgG1, kappa, V domains shown)
VH: EVQLQQSGPELVKPGTSVRISCKTSGYTFTEYTIHWVKQSHGKSLEWIGNINPNNGGTTYNQKFEDKATLTVDKSSSTAYMELRSLTSEDSAVYYCAAGWNFDYWGQGTTLTVSS
VL: DIVMTQSHKFMSTSVGDRVSIICKASQDVGTAVDWYQQKPGQSPKLLIYWASTRHTGVPDRFTGSGSGTDFTLTITNVQSEDLADYFCQQYNSYPLTFGAGTKVEIKR
modifications: para-acetyl phenylalanine (pAF) at position A114 (Kabat numbering; first residue of the heavy chain constant region), conjugated to non-cleavable (PEG3) MMAF drug-linker
B5: Chimeric Anti-PSMA Antibody ADC, MMAF payload, Cleavable (Val-Citruline-PEG1) linker (antibody, human IgG1, kappa, V domains shown)
VH: EVQLQQSGPELVKPGTSVRISCKTSGYTFTEYTIHWVKQSHGKSLEWIGNINPNNGGTTYNQKFEDKATLTVDKSSSTAYMELRSLTSEDSAVYYCAAGWNFDYWGQGTTLTVSS
VL: DIVMTQSHKFMSTSVGDRVSIICKASQDVGTAVDWYQQKPGQSPKLLIYWASTRHTGVPDRFTGSGSGTDFTLTITNVQSEDLADYFCQQYNSYPLTFGAGTKVEIKR
modifications: para-acetyl phenylalanine (pAF) at position A114 (Kabat numbering; first residue of the heavy chain constant region), conjugated to cleavable (Val-Citruline-PEG1) MMAF drug-linker
B6: Chimeric Anti-PSMA Antibody ADC, MMAE payload, Short Cleavable (Valine-Citruline-Acetyl) linker (antibody, human IgG1, kappa, V domains shown)
VH: EVQLQQSGPELVKPGTSVRISCKTSGYTFTEYTIHWVKQSHGKSLEWIGNINPNNGGTTYNQKFEDKATLTVDKSSSTAYMELRSLTSEDSAVYYCAAGWNFDYWGQGTTLTVSS
VL: DIVMTQSHKFMSTSVGDRVSIICKASQDVGTAVDWYQQKPGQSPKLLIYWASTRHTGVPDRFTGSGSGTDFTLTITNVQSEDLADYFCQQYNSYPLTFGAGTKVEIKR
modifications: para-acetyl phenylalanine (pAF) at position A114 (Kabat numbering; first residue of the heavy chain constant region), conjugated to short cleavable (Valine-Citruline-Acetyl) MMAE drug-linker
B7: Chimeric Anti-PSMA Antibody ADC, MMAE payload, Non-Cleavable (PEG3) linker (antibody, human IgG1, kappa, V domains shown)
VH: EVQLQQSGPELVKPGTSVRISCKTSGYTFTEYTIHWVKQSHGKSLEWIGNINPNNGGTTYNQKFEDKATLTVDKSSSTAYMELRSLTSEDSAVYYCAAGWNFDYWGQGTTLTVSS
VL: DIVMTQSHKFMSTSVGDRVSIICKASQDVGTAVDWYQQKPGQSPKLLIYWASTRHTGVPDRFTGSGSGTDFTLTITNVQSEDLADYFCQQYNSYPLTFGAGTKVEIKR
modifications: para-acetyl phenylalanine (pAF) at position A114 (Kabat numbering; first residue of the heavy chain constant region), conjugated to non-cleavable (PEG3) MMAE drug-linker
B8: Chimeric Anti-PSMA Antibody ADC, MMAF payload, Short Cleavable (Valine-Citruline-Acetyl) linker (antibody, human IgG1, kappa, V domains shown)
VH: EVQLQQSGPELVKPGTSVRISCKTSGYTFTEYTIHWVKQSHGKSLEWIGNINPNNGGTTYNQKFEDKATLTVDKSSSTAYMELRSLTSEDSAVYYCAAGWNFDYWGQGTTLTVSS
VL: DIVMTQSHKFMSTSVGDRVSIICKASQDVGTAVDWYQQKPGQSPKLLIYWASTRHTGVPDRFTGSGSGTDFTLTITNVQSEDLADYFCQQYNSYPLTFGAGTKVEIKR
modifications: para-acetyl phenylalanine (pAF) at position A114 (Kabat numbering; first residue of the heavy chain constant region), conjugated to short cleavable (Valine-Citruline-Acetyl) MMAF drug-linker
B9: Humanized Anti-PSMA Antibody Variant 1 ADC, MMAE payload, Non-Cleavable (PEG3) linker (antibody, human IgG1, kappa, V domains shown)
VH: QVQLVQSGAEVKKPGASVKVSCKASGYTFTEYTIHWVRQAPGQRLEWMGNINPNNGGTTYNQKFEDRVTITRDTSASTAYMELSSLRSEDTAVYYCAAGWNFDYWGQGTTLTVSS
VL: DIQLTQSPSFLSASVGDRVTITCKASQDVGTAVDWYQQKPGKAPKLLIYWASTRHTGVPSRFSGSGSGTEFTLTISSLQPEDFATYYCQQYNSYPLTFGGGTKVEIKR
modifications: para-acetyl phenylalanine (pAF) at position A114 (Kabat numbering; first residue of the heavy chain constant region), conjugated to non-cleavable (PEG3) MMAE drug-linker

target: T1, prostate specific membrane antigen (PSMA) (UniProt Q04609 1-750, limits assumed); assay: FACS, HEK293 supernatants on LnCap cells expressing PSMA
T1 construct: whole, on cells; Endogenous PSMA on human prostate cancer cell lines; also called PSMA antigen; PSMA receptor
T1 sequence (Q04609 whole entry): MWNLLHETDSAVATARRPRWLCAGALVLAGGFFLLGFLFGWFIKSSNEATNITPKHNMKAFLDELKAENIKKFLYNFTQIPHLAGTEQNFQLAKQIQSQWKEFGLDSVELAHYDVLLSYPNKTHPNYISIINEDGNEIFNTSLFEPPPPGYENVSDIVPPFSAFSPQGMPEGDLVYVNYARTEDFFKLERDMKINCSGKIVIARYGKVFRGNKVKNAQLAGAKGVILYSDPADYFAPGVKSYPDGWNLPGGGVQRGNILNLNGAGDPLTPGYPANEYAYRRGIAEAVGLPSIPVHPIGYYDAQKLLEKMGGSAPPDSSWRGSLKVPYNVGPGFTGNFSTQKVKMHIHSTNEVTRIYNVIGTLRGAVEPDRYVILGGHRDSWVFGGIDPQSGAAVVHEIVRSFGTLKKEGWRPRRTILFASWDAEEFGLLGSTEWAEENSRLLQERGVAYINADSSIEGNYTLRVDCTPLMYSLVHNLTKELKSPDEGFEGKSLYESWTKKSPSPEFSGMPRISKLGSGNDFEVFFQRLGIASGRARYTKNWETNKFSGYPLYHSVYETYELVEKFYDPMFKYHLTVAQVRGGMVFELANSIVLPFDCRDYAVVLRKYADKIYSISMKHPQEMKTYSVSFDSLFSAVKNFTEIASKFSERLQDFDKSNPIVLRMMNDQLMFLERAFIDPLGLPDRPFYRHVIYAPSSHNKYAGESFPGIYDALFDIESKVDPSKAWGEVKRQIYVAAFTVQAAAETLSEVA
Text: Example 2: Antibody Humanization-Parental mouse J591 (Liu et al., Cancer Research, 57, […], 1997) antibody was humanized by selecting human frameworks based on sequence identity with the mouse framework sequence. The light chain and heavy chain CDRs from the mouse antibody were grafted onto the human frameworks, respectively, and analyzed for binding to PSMA antigen. Humanized variants were generated by pairing four human heavy chain frameworks with six light chain frameworks. The variants were expressed transiently in HEK293 cells and the supernatants were tested for binding to the PSMA antigen expressed in LnCap cells by FACS. Table 4 describes a selected heavy chain variable region sequence and 4 light chain variable region sequences used for further studies. […] ID Nos: 8 and the light chain sequence of SEQ. […] ID Nos: 10 and the light chain sequence of SEQ. […] ID Nos: 12 and the light chain sequence of SEQ. […] ID Nos: 14 and the light chain sequence of SEQ. ID Nos: 15.

B1: binds.
B2: binds.
B3: binds.

target: T1, prostate specific membrane antigen …; assay: cell-based or functional assay

B4 and B5 are the same in “Cell Killing (%), C4-2 cell line” value: 89.5% for the first, 89.5% for the second.

Compared with B6, B7 is lower in “Cell Killing (%), C4-2 cell line” value: 82.5% for the first, 62.5% for the second.

Compared with B8, B9 is lower in “Cell Killing (%), C4-2 cell line” value: 94.5% for the first, 64.5% for the second.

Compared with B4, B5 is 6.3-fold lower in “IC50 (nM), in vitro cell killing in C4-2 cell line (Cell Titer Glo, 96 h)” value (“IC50 (nM), in vitro cell killing” below): 0.295 nM for the first, 0.047 nM for the second.

Going from B6 to B7, the “IC50 (nM), in vitro cell killing” value rises from 0.425 nM to 10.2 nM (24-fold).

Going from B8 to B9, the “IC50 (nM), in vitro cell killing” value rises from 0.049 nM to 11.3 nM (230-fold).
